We go through three substances from publication PMC12136220.

Assay [1] concerns the target Listeria adhesion protein (LAP) (Listeria monocytogenes). Nature of the assay: cryo-EM structure; LAP alone, 1.2 mg/ml, Titan Krios 300 kV with K3 detector, cryoSPARC.
For assay [2], the target named is human recombinant Hsp60 (human) (UniProt P10809).
The target is the same in assay [3]. This is another data set of the same source.
For assay [4], the target named is Listeria adhesion protein (LAP) (Listeria monocytogenes). Put plainly: cryo-EM structure; purified LAP mixed with Hsp60 at 2:1, incubated 4 h at 4°C; Titan Krios 300 kV with K3 detector, cryoSPARC; LAP-Hsp60 map refined in C1, Hsp60 alone in C7, LAP dimer in C2.

Values joined by “and” are separate entries in the source; they are usually repeats but may differ in a detail not shown here. Identical values can stand only once.

Chain of human recombinant Hsp60 (human) (P10809 27-573): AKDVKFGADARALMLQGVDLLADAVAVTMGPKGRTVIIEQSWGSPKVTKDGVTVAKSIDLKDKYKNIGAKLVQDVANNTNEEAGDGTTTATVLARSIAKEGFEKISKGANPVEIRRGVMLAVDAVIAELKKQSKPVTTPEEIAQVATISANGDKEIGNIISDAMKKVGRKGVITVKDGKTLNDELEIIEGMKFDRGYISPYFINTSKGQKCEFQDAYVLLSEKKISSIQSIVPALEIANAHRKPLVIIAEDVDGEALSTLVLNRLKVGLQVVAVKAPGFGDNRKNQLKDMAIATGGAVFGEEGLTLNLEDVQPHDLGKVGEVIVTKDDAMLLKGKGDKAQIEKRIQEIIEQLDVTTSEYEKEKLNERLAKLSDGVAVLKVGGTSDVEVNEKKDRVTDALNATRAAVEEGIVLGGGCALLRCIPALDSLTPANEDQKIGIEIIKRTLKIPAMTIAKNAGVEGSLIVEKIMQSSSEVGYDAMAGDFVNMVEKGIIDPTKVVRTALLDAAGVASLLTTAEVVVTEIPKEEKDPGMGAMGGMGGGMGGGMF

Turning to “Listeria adhesion protein (LAP) (natural protein)”, the stoichiometry N in assay [1] is 2 and 4; in assay [4], 4 and 2. For the same substance, the FD4 (FITC 4-kDa dextran) permeability through Caco-2 monolayers after 1 h, LAP 0.01-5 μg/mL in assay [2] was 80%. In addition, the FD4 paracellular flux through Caco-2 monolayers in 1 h, relative to PBS control in assay [3] was 264%.

As to “N1 subdomain of LAP (domain or fragment)”, in assay [3], the FD4 paracellular flux through Caco-2 monolayers in 1 h, relative to PBS control amounted to 133% and the decrease of TEER of Caco-2 monolayers in 1 h, relative to full-length LAP (100%) is 78%.

Regarding “N2 subdomain of LAP (domain or fragment)”, in assay [3], the FD4 paracellular flux through Caco-2 monolayers in 1 h, relative to PBS control came out at 149% and the decrease of TEER of Caco-2 monolayers in 1 h, relative to full-length LAP (100%) turned out to be 96%.
